{"source": "the NTF2 design screens of Basanta et al. (2020)", "data": [{"experiment": "protease stability score; higher = more stable; yeast display proteolysis, trypsin and chymotrypsin;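 further: log10 excess protease needed over predicted unfolded state with 0 meaning unfolded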", "values": [{"sequence": "DEDNVKRAEHFAEALITGNPEEIQKQVDPNAKIKVGEQEVHGMESYAKEVHEENKEMHIEIRHISATAQGDRARLEMRYVINSNGRPQHVVQEYTIKLHNGRAQEIEVKDDG", "protease stability score": 0.282}, {"sequence": "DEKKIKDLARRVMQYYVSGNTEEVEKLGKDDVQVHFGDQTYHGVEQVKKVVKEFKEYGVELQLKDIQYDGDRADAEVEVHAGGHTWKFTVTVQLDGGKVDNLTFHVSDEAKKAIEHG", "protease stability score": 0.982}, {"sequence": "EEEVKRKMKEYFDVARHGDPDRLREYVDENARIHIGDKVIHGMSDAADHLAQHYKEIRFDYTRIDVKAEGDQVKVDIDVVVNHNGRPEQVHLHWEARFTNGRVKHMKVQRQK", "protease stability score": -0.108}, {"sequence": "DDEQDKKAEKLVNTGNFHDMANNADPNARIVVGDKRFHGREQFHTFMESLQTTIDHLQIKDIKRRPNHVEADVVAEVNGRRITFVILMVVHNGRIKNVEFKFRDEEDERVMEQILR", "protease stability score": 0.947}, {"sequence": "DEEEAKKVVETAVKYLQKGNVKQLKDIGHEGVDYQVADNKKKGPDAIEDVLRYLEKLGVRMEVKKQEVKGDTAHTVVDYQQGDTKVRATVEADIQGGRIDRVQVNVPETLKKILKHG", "protease stability score": -0.284}, {"sequence": "DERNLHVANEFWKVLTDGDPRRLMELVDPNAKIQYGDKTITGREEIRKKAEKDTKKSRFEVQVQDIRVTGDTANIHAVFNEDHNGQPSQDFYVVTMAMNGDKIRFMIQRKSK", "protease stability score": 0.483}, {"sequence": "DEEQLKHVAEQLRRLWENNDENQIAQLMDENVEVQVGDKTLHGRDDVRKWAQDLRKSADHVKVHSIRNRGDKVQMDFVVENNGRQTKMEVIAHVHNGRIKSLKLRTK", "protease stability score": 1.16}, {"sequence": "DEDQNRKMEHALRKNDWTRLAEQADKDVKVHIGDKVLHGREEVLKYLKRFQENVDHIEIKRMEATGNKVTVEYDVNFDGTTLDVTFKMVVQNGTVEHMTFDFRSEEQEHEAKKAYG", "protease stability score": 0.627}, {"sequence": "DDDARDLMKEVLTAQKNNDPKHVRKLFDPNANIKYGDREVTGMDHAAKTLVDHIQQIRLQIDSVTLEVQGDTIIVHAQMVNDRNGNPDSTRFVLEAKVDGDKFKSQDKQEDS", "protease stability score": -0.524}, {"sequence": "DDHRAHQMAEFVIDAIRTGDPDKFVNQADENVRVVIGDKQVQGHEEAREALKSLKDQADHVSLTDFRVHGDKVEVVFEARVNGVDLVMKVYARIHNGHLVMMSIDVTDPRKQKKADS", "protease stability score": 1.11}, {"sequence": "EEKNQHVAQQWLEMVQNGDPRKAKQQFDKDARVKIGDKELNGREEIVRQFEREQREMRVDIKDYKIDVNGDKVTVRLHVEVQSNGTPTTRDYVVHMQVHNGRVQMVIFRSDG", "protease stability score": 0.747}, {"sequence": "DEHDAESIQSVLTNGNFESMDELADKDVHVDVGNKRYHGQEQFRTLQTHYKNRVDHVDMHRLTQDGEKINADMRAVVNGKDFQFELVIKVHNGRIRRLQLNFTSDSQDKEHEERLR", "protease stability score": 0.496}, {"sequence": "DEDHMRTLIQRFIEAVQKGDEEQIKRLADPNARMRVGEREIHGREEIAKEIKDIRDQVDHINIRTWSFHNGEAHLEVEYNHNGQHRTMKLRIVVRNGKLQELEWRKG", "protease stability score": 2.39}, {"sequence": "EEHVLTRFNSNMSNNNFNHIRDMADENAKMRVGDQEYHGRDNIHRLLEELKTQADHIQVRDYNHRGEHVHVDVEMVINGQKLVARWHAEIKNGRIKEMVLQFTNEEQEKTVRKALR", "protease stability score": 0.302}, {"sequence": "DHEQLKNLKELLEAVQTGDEDQVKELMDPNAKFEYGNKSFHGRESMESYLKKLENEARVTVRSVTVRVSNGTISADVHLIFEVNGQPITVDAKFEAELHNGRVKHLYVRMPEETMKEIQG", "protease stability score": -0.312}, {"sequence": "DEEDAHEQVHRIVKALETGDPDQVVNQADENVRIHVGEKTVHGQEKVREFVEEYNEQVDDVNVRHVSLDGNKATVTIDIDVNGNKRRVHFRFQFDNGRVQTIRVDTS", "protease stability score": 0.719}, {"sequence": "DERDQNRKAEEAAHALRDGDERRISEMFDKNAHATVGDQTYTGREEIMKWVHDIKKRYDHVTLHDVKVHNGRADLDMVFNHNGKEDRIRIDIQFQGDKIKHVSVRSK", "protease stability score": 1.69}, {"sequence": "DEEEEHKFEDQVRTNDPDKQRKQLDKDVHVEYGDRTYHGRDAVDKWYKKMKKQVDHVHYHDIRIRNGHATLQNEANVNGRNVRMHVDIEVHNGRLKRMTINFRDEEDTKLFDRLVR", "protease stability score": 0.048}, {"sequence": "DEEDRHELQRRAEHGDFLNLAHNADPNAHIKVGDKDLTGREDLDHVLRKMHNRIDRYHLVHVTKTGDKLVVRAQARVDGRDIEFKMEIRARNGRIKEVSIRFRSEEDQKTFEKLLK", "protease stability score": 0.059}, {"sequence": "DSRAQSLFHKWMDALRTGDRRKLSELADPNVSITYGDKTIHGREENMKEAHRLVNQMRVDFDIKSIENEPNRVIIRMRVEYDVNGRPFDDEVVVELRAKGDHIKEVRVRIDPRQVKELSG", "protease stability score": 0.907}, {"sequence": "DEENVKQAKKFADAMRHGDPEKLAKLADENAKLVIGDKTVHGRDDLRRERKKLNEHSRQHVDVKSIEAENGRVDVTASMTLSHNGKPDQVHVKIHMRITNGQIEEVHVNYKP", "protease stability score": -0.492}, {"sequence": "DDDLKRKVHKFVEDWKDGDPHRLNHMADEDVRFQVGDKEIHGRKQMHEEVDKEKKEMRRHIDHLELDNQGNTVRVRFELTFTHNGKPFKVDVTIDMEFDGDRLKQAVQRVPREDQTKVKN", "protease stability score": -0.209}, {"sequence": "DEEHQKHFEQFVKAMETGDEERLAQLVDKDVEISYGDKTIHGREELRKRVREIKEELRLTMDFKRITVRGDKVQANFKASMNHNGQPVSFKAHVTVTAHNGTIKSVSLSNHK", "protease stability score": 1.1}, {"sequence": "DQEEAKEVAEKVMKAVENGDEKKLKDLIDEGVKYEVGDTQQHGPEVAVKVVQYLQKKGVRLEFKEVQHHGNQVHTKIEYQNGDETDTVEATAEVKGGKIDQVQIHASETVVKWIKHG", "protease stability score": 0.088}, {"sequence": "DEEKLVQLMDKAFKFIVNGNTEEAQKMGADNVRYEYVDKKYEGPDVAKKMAQLMQKVGVERTVKRQELKGDQATADFDYRKGDKEYRTTAEVKYEGDKIKEARVEVTDEVKEVVHQG", "protease stability score": -0.249}, {"sequence": "DEDAQTQVEKMLKNMQRGDNQEVNKMFDKNVEFRVGDRDIHGREEYARQVSREHKESRVEFRHIHARVKGDHVRIRVDVVRQVNGKPQRMTVEFEVQAHNGKIKRFQVEFDPDEERRVQK", "protease stability score": 0.196}, {"sequence": "DEELRKQAEELLKARKTNDERQNEELFDPNAHVRYGDRTLHGNEQASKDIADRLEEIRVSMSVEKVEVQGEHVRLEFKFEFEVNGRPQTQTATEEMTVHNGRIKEVRLNVSEEQKRRYKK", "protease stability score": -0.026}, {"sequence": "DQEEVRRVVEKVAKAVQNGDATRLRDMGKDGVKYRRVEEETHGPEAVEKVLKYLRKQGVKLQVKHVEVEGNTAQTEVDYRRGDETLTVHAKAKVQGGRIDEVQVDLDEKAKKYVDHG", "protease stability score": 0.138}, {"sequence": "DEEKNRKQATKVARNIADGNEDEIRKLADEDARANVGDKQVHGRDHVRKLLSDFHHTADRVKLDTINVSGDKVNAKLVLDYNGRRVSVVVQAEVRNGRLKQVNIRATNPEHQKKVES", "protease stability score": 0.239}, {"sequence": "DEEVLDDVVKVMHQNDFSRLKELFDKNATIEVGDKRYHGREEAHKLMDIIKKKVDHVRIDKVHKSGNKVRIDAILEYNGNHMKVVFVIKLHNGQAKNIHIEFTSENLQNKFKTLVD", "protease stability score": 1.02}, {"sequence": "DEEHNKEVMENIITGNSDEMRKMVDPNAQLEIGDKRYHGRDQIDTFEHLMRDRVDNLEVKRYDLQGDKVHVDYVFVVNGKHARVRVSFSVKNGRFTQIRIEVTDEEVEKILREVQK", "protease stability score": 1.17}, {"sequence": "DETDTAKDFAEELRTIFESNDFKRYQQLFDPNAKIHVGEKRLHGDRRVNNLIKEIFDRADHLHFDLREFEVKGEKVRIRYVEKQKINGKDETRDVVMVAVKQGDKMYITEVRHQ", "protease stability score": 1.13}, {"sequence": "DEEALKNWEHQLRAHEQGDENRLKELADPNVRYRVGNHEIRGMQQRVEDASRVKEHMRVQMSIQEVEVRGDKFDATATAEYVVNGRPQQITYKFSFHAHNGKIKNLDVRLDEDQQRKLEK", "protease stability score": 0.184}, {"sequence": "DRHERKKVAKDFNEALETNDHEQLMEQMDPNARIKYGDKHYHGREDLRRFWKKLVDSVDHITVDKMQVRGEEVVVLAKAESNGRNETFRLVMEFHNGRIKFVRKDTP", "protease stability score": 0.132}, {"sequence": "DSRDNRAATRLRQAHESGDPDQIRDNVDPNATIQVGDKSIHGMESWAREEHKKHRELKVEIKDFRQSASNGHVKATIDRVDNHNGRPQRTTVDIHIVFHNGKVKSIDVKTTK", "protease stability score": -0.481}, {"sequence": "DEHSDERRLQTAMHALEQNDPDEIKRQMDKDASARYGEKDVTGRDNAKKAASDFKKKVDHVEIKHYDIQGDKLHAKAKVNINGQHIEIIMVLVAHNGHVQRLQVDHG", "protease stability score": 0.227}]}]}
